The text below walks through data of publication PMC9913075.

For the test, the target named is Taspase1, endogenous in HeLa cells (human (endogenous in HeLa)) (UniProt Q9H6P5). The experiment in a line: proximity ligation; Duolink PLA on fixed HeLa cells with rabbit anti-Topoisomerase IIα/β and mouse anti-Taspase1; foci per nucleus counted.
Sequence of UniProt Q9H6P5 (Q9H6P5 whole entry): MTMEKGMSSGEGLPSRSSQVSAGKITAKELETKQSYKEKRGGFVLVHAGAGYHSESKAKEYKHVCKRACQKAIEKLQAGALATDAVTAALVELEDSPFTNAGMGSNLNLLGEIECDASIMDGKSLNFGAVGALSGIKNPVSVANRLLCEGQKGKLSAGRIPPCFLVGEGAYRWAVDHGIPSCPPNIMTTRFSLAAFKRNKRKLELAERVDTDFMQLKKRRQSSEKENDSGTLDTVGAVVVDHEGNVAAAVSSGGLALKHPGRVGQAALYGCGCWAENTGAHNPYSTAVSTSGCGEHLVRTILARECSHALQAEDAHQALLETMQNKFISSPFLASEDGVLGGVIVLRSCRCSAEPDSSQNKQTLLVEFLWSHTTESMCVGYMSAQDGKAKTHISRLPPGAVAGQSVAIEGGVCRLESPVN

For the substance “Topo IIα/β (endogenous, HeLa cells, detected with an antibody that recognises both isoforms)”, the PLA foci per nucleus (median) (foci per nucleus) was found to be 45.
